Results reported in patent US20180051079A1 (MacroGenics, published 2018).

Assays:
Assay in all cases: assay not named in Table 4
[1] = target: T1, CD16A F158 (UniProt P08637 17-208, limits assumed)
T1 construct: Only the name and allotype are printed; also called FcγRIIIA

[2] = target: T2, CD32B (UniProt P31994 43-217, limits assumed)
T2 construct: Only the name is printed; also called FcγRIIB
T2 sequence (looked up): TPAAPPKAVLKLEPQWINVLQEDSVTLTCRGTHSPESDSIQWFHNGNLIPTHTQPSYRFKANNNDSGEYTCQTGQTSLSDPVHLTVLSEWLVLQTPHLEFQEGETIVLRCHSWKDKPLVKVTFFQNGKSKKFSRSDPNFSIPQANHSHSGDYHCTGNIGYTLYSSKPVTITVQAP

[3] = target: T3, CD16A V158 (UniProt P08637 17-208, limits assumed)
T3 construct: Only the name and allotype are printed; also called FcγRIIIA
T3 sequence (P08637 17-208 F176V limits assumed): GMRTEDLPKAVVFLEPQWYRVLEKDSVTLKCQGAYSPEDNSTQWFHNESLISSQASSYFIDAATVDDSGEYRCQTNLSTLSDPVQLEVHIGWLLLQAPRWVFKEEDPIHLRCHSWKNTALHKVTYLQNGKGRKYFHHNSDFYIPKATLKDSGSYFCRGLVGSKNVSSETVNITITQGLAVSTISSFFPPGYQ

T1 sequence (P08637 17-208 limits assumed): as the sequence (P08637 17-208 F176V limits assumed) above, with V160F counted along it

Fc variant V284M R292P K370N (from UniProt P01857 104-330)
binding relative to wild-type Fc [1]: 1.37
binding relative to wild-type Fc [2]: 0.37
binding relative to wild-type Fc [3]: 1.14

B1: Fc variant D270E G316D R416G (other, UniProt P01857-1 104-330, looked up)
chain: DKTHTCPPCPAPELLGGPSVFLFPPKPKDTLMISRTPEVTCVVVDVSHEEPEVKFNWYVDGVEVHNAKTKPREEQYNSTYRVVSVLTVLHQDWLNDKEYKCKVSNKALPAPIEKTISKAKGQPREPQVYTLPPSRDELTKNQVSLTCLVKGFYPSDIAVEWESNGQPENNYKTTPPVLDSDGSFFLYSKLTVDKSGWQQGNVFSCSVMHEALHNHYTQKSLSLSPGK
notes: domain: Fc
binding relative to wild-type Fc [1]: 2.49
binding relative to wild-type Fc [2]: 0.78
binding relative to wild-type Fc [3]: 2.18

B2: Fc variant D270E K392T P396L (other, UniProt P01857-1 104-330, looked up)
chain: DKTHTCPPCPAPELLGGPSVFLFPPKPKDTLMISRTPEVTCVVVDVSHEEPEVKFNWYVDGVEVHNAKTKPREEQYNSTYRVVSVLTVLHQDWLNGKEYKCKVSNKALPAPIEKTISKAKGQPREPQVYTLPPSRDELTKNQVSLTCLVKGFYPSDIAVEWESNGQPENNYTTTPLVLDSDGSFFLYSKLTVDKSRWQQGNVFSCSVMHEALHNHYTQKSLSLSPGK
notes: domain: Fc
binding relative to wild-type Fc [1]: 2.28
binding relative to wild-type Fc [2]: 0.79
binding relative to wild-type Fc [3]: 1.81

B3: Fc variant D270E P396L Q419H (other, UniProt P01857-1 104-330, looked up)
chain: DKTHTCPPCPAPELLGGPSVFLFPPKPKDTLMISRTPEVTCVVVDVSHEEPEVKFNWYVDGVEVHNAKTKPREEQYNSTYRVVSVLTVLHQDWLNGKEYKCKVSNKALPAPIEKTISKAKGQPREPQVYTLPPSRDELTKNQVSLTCLVKGFYPSDIAVEWESNGQPENNYKTTPLVLDSDGSFFLYSKLTVDKSRWQHGNVFSCSVMHEALHNHYTQKSLSLSPGK
notes: domain: Fc
binding relative to wild-type Fc [2]: 0.68
binding relative to wild-type Fc [3]: 1.64

B4: Fc variant F243I R292P Y300L V305I P396L (other, UniProt P01857-1 104-330, looked up)
chain: DKTHTCPPCPAPELLGGPSVFLIPPKPKDTLMISRTPEVTCVVVDVSHEDPEVKFNWYVDGVEVHNAKTKPPEEQYNSTLRVVSILTVLHQDWLNGKEYKCKVSNKALPAPIEKTISKAKGQPREPQVYTLPPSRDELTKNQVSLTCLVKGFYPSDIAVEWESNGQPENNYKTTPLVLDSDGSFFLYSKLTVDKSRWQQGNVFSCSVMHEALHNHYTQKSLSLSPGK
notes: domain: Fc; Written as printed (F243I); may be a misprint of F243L
binding relative to wild-type Fc [1]: 3.12
binding relative to wild-type Fc [2]: 1.05

B5: Fc variant F243L D270E G316D R416G (other, UniProt P01857-1 104-330, looked up)
chain: DKTHTCPPCPAPELLGGPSVFLLPPKPKDTLMISRTPEVTCVVVDVSHEEPEVKFNWYVDGVEVHNAKTKPREEQYNSTYRVVSVLTVLHQDWLNDKEYKCKVSNKALPAPIEKTISKAKGQPREPQVYTLPPSRDELTKNQVSLTCLVKGFYPSDIAVEWESNGQPENNYKTTPPVLDSDGSFFLYSKLTVDKSGWQQGNVFSCSVMHEALHNHYTQKSLSLSPGK
notes: domain: Fc
binding relative to wild-type Fc [1]: 1.34
binding relative to wild-type Fc [2]: 0.2
binding relative to wild-type Fc [3]: 1.5

B6: Fc variant F243L D270E K392T P396L (other, UniProt P01857-1 104-330, looked up)
chain: DKTHTCPPCPAPELLGGPSVFLLPPKPKDTLMISRTPEVTCVVVDVSHEEPEVKFNWYVDGVEVHNAKTKPREEQYNSTYRVVSVLTVLHQDWLNGKEYKCKVSNKALPAPIEKTISKAKGQPREPQVYTLPPSRDELTKNQVSLTCLVKGFYPSDIAVEWESNGQPENNYTTTPLVLDSDGSFFLYSKLTVDKSRWQQGNVFSCSVMHEALHNHYTQKSLSLSPGK
notes: domain: Fc
binding relative to wild-type Fc [1]: 2.44
binding relative to wild-type Fc [2]: 0.44
binding relative to wild-type Fc [3]: 3.16

B7: Fc variant F243L D270E P396L Q419H (other, UniProt P01857-1 104-330, looked up)
chain: DKTHTCPPCPAPELLGGPSVFLLPPKPKDTLMISRTPEVTCVVVDVSHEEPEVKFNWYVDGVEVHNAKTKPREEQYNSTYRVVSVLTVLHQDWLNGKEYKCKVSNKALPAPIEKTISKAKGQPREPQVYTLPPSRDELTKNQVSLTCLVKGFYPSDIAVEWESNGQPENNYKTTPLVLDSDGSFFLYSKLTVDKSRWQHGNVFSCSVMHEALHNHYTQKSLSLSPGK
notes: domain: Fc
binding relative to wild-type Fc [1]: 1.15
binding relative to wild-type Fc [2]: 0.26
binding relative to wild-type Fc [3]: 1.46

B8: Fc variant F243L P247L D270E N421K (other, UniProt P01857-1 104-330, looked up)
chain: DKTHTCPPCPAPELLGGPSVFLLPPKLKDTLMISRTPEVTCVVVDVSHEEPEVKFNWYVDGVEVHNAKTKPREEQYNSTYRVVSVLTVLHQDWLNGKEYKCKVSNKALPAPIEKTISKAKGQPREPQVYTLPPSRDELTKNQVSLTCLVKGFYPSDIAVEWESNGQPENNYKTTPPVLDSDGSFFLYSKLTVDKSRWQQGKVFSCSVMHEALHNHYTQKSLSLSPGK
notes: domain: Fc
binding relative to wild-type Fc [1]: 3.45
binding relative to wild-type Fc [2]: 0.32
binding relative to wild-type Fc [3]: 2.3
